No end group written: not given here.
Tests used:
[1] = test system: A549 cells; assay: MTS cytotoxicity assay in A549 cells; format: cell-based, human
Description: (§1) Cytotoxicity Assay. Cytotoxicity of GA, K100, and K9, PEI, and CaCl2 was determined using a Cell Titer 96® AQueous Non-Radioactive Cell Proliferation Assay (MTS) obtained from Promega (Madison, Wisconsin). A549 and HeLa cells were cultured in a 96-well plate as described previously. Cells were treated with the samples for ~24 hours. Then, the media were replaced with a mixture of 100 µL of fresh serum medium and 20 µL of MTS. The plate was incubated for 3-4 hours in the incubator. To determine cell viability, the absorbance of each well was measured by a microplate reader (SpectraMax; Molecular Devices Crope, CA) at 490 nm and normalized to untreated control cells.

[2] = test system: pDNA (pGL3); assay: Agarose gel electrophoresis of polycation-pDNA nanoparticles; format: physicochemical; settings: for immobilization of pDNA in agarose gel: N/P ratio of 0.5
Description: Nanoparticle Formation. GA-pDNA nanoparticles, K100-pDNA nanoparticles, and K9-pDNA nanoparticles were prepared by adding 15 µL of the GA, K100, or K9 solutions at polymer nitrogen to pDNA phosphate ([…]) of pDNA (TAE Buffer (1x) was used as a solution for DNA storage), followed by repeated pipetting for 20-25 seconds. At that point, 15 µL of CaCl2 (0 or 38 mmol/L) was added to determine the effect of calcium. After formulating, samples were stored at 4° C. for ~20 minutes. PEI-pDNA nanoparticles were prepared by adding 15 µL of PEI solution (N/P ratio of 10) to 10 µL (0.1 µg/µL) of pDNA followed by pipetting for 20-25 seconds. After preparing PEI-pDNA nanoparticles, they were stored at 4° C. for ~20 minutes. All nanoparticles in this study were prepared immediately before each experiment.
Agarose Gel Electrophoresis. GA-pDNA nanoparticles, K100-pDNA nanoparticles, and K9-pDNA nanoparticles were prepared as defined above and subsequently, 4 µL of Tris-acetate-EDTA (TAE) buffer was added. Then, 4 µL of SYBR Green 1 was mixed with the nanoparticles. Afterward, the mixture was stored at 4° C. for 20-25 minutes. Then, 7 µL of 6X DNA loading dye (Takara Bio Inc., Japan) was added. A one kb DNA ladder (Promega, Madison, WI) was used. The mixture solutions were loaded onto a 1% agarose gel, and electrophoresed for 30 minutes at 110 V.

[3] = test system: HeLa cells; assay: MTS cytotoxicity assay in HeLa cells; format: cell-based, human; settings: ~24 hours treatment
Description: as §1

Glatiramer Acetate [GA]
cytotoxicity ([1]; up to 1 mg/mL, cell line not stated at the place (A549 and HeLa tested)): negligible cytotoxicity | immobilization of pDNA in agarose gel [2]: able to immobilize pDNA completely

K9: KKKKKKKKK (SEQ ID NO: 1), C-terminal amide, Mw = 1170.65 Da (KKKKKKKKK-NH2)
immobilization of pDNA in agarose gel [2]: did not | complexation of pDNA in agarose gel ([2]; N/P ratio of 1): did not completely complex pDNA

B1: K100: (KKKKKKKKKK)n=10 (SEQ ID NO: 2), Mw = 16,000 Da, high molecular weight polylysine (peptide)
chain: KKKKKKKKKKKKKKKKKKKKKKKKKKKKKKKKKKKKKKKKKKKKKKKKKKKKKKKKKKKKKKKKKKKKKKKKKKKKKKKKKKKKKKKKKKKKKKKKKKKK
modifications: ten repeats of SEQ ID NO:2 motif
cytotoxicity (MTS) ([1]; A549 cells, ~24 hours treatment): highly cytotoxic at low concentrations | immobilization of pDNA in agarose gel [2]: able to immobilize pDNA completely | cytotoxicity (MTS) [3]: highly cytotoxic at low concentrations
